Values joined by “and” are separate entries in the source; they are usually repeats but may differ in a detail not shown here. Equal values may be shown once.
B1: Lysozyme C, P61626 (parent)
chain: MKALIVLGLVLLSVTVQGKVFERCELARTLKRLGMDGYRGISLANWMCLAKWESGYNTRATNYNAGDRSTDYGIFQINSRYWCNDGKTPGAVNACHLSCSALLQDNIADAVACAKRVVRDPQGIRAWVAWRNRCQNRDVRQYVQGCGV

Variants of: B1
Conditions: Homo sapiens; pH 2.51; Thermal; DSC; glycine 0.05 M; reversible: yes; structure 1LZ1; whole UniProt chain shown

Row | Variant | Tm [°C] | heat capacity change of unfolding [kcal/mol/K] | unfolding enthalpy (calorimetric) [kcal/mol] | unfolding enthalpy (van 't Hoff) [kcal/mol]
1 | I124A | 57.7 | 1.15 | 96.4 | 102

Same assay, conditions: Homo sapiens; pH 2.7; 64.9 °C; Thermal; DSC; glycine 0.05 M; reversible: yes; structure 1LZ1; whole UniProt chain shown

Row | Variant | ddG of mutation (higher = less stable) [kcal/mol] | heat capacity change of unfolding [kcal/mol/K] | unfolding enthalpy (calorimetric) [kcal/mol] | unfolding enthalpy (van 't Hoff) [kcal/mol]
2 | I124A | 0.93 | 1.34 | 106 | 112
3 | I77A | 1.72 | 1.46 | 115 | 121
4 | I77G | 3.83 | 1.24 | 106 | 110
5 | I107A | 2.7 | 1.65 | 110 | 113
6 | I41A | 2.54 | 1.2 | 109 | 116
7 | I74A | 3.71 | 1.34 | 105 | 111

Same assay, conditions: Homo sapiens; pH 2.7; Thermal; DSC; glycine 0.05 M; reversible: yes; structure 1LZ1; whole UniProt chain shown

Row | Variant | Tm | change of melting temperature, mutant - wild type (higher = more stable) [°C] | heat capacity change of unfolding | unfolding enthalpy (calorimetric) [kcal/mol] | unfolding enthalpy (van 't Hoff) [kcal/mol]
8 | I124A | 61.9 °C | -3 | 1.34 kcal/mol/K | – | –
9 | I77A | 59.7 °C | -5.2 | 1.46 kcal/mol/K | – | –
10 | I77G | 52 °C and 52.2 °C | -12.7 | 0.62 kcal/mol/K and 1.24 kcal/mol/K | 90.9 | 92.8
11 | I107A | 56.2 °C | -8.7 | 1.65 kcal/mol/K | – | –
12 | I41A | 56.8 °C | -8.1 | 1.2 kcal/mol/K | – | –

Same assay, conditions: Homo sapiens; pH 2.8; Thermal; DSC; glycine 0.05 M; reversible: yes; structure 1LZ1; whole UniProt chain shown

Row | Variant | Tm [°C] | heat capacity change of unfolding [kcal/mol/K] | unfolding enthalpy (calorimetric) [kcal/mol] | unfolding enthalpy (van 't Hoff) [kcal/mol]
13 | I124A | 64.1 | 0.98 | 104 | 111
14 | I77A | 61.5 | 1.2 | 110 | 115
15 | I107A | 57.7 | 1.08 | 97.8 | 103

Same assay, conditions: Homo sapiens; pH 2.96; Thermal; DSC; glycine 0.05 M; reversible: yes; structure 1LZ1; whole UniProt chain shown

Row | Variant | Tm [°C] | heat capacity change of unfolding [kcal/mol/K] | unfolding enthalpy (calorimetric) [kcal/mol] | unfolding enthalpy (van 't Hoff) [kcal/mol]
16 | I124A | 67.4 | 1.17 | 109 | 114
17 | I41A | 62 | 1.08 | 105 | 111
18 | I74A | 58.5 | 1.6 | 96.9 | 102

Same assay, conditions: Homo sapiens; pH 3.1; Thermal; DSC; glycine 0.05 M; reversible: yes; structure 1LZ1; whole UniProt chain shown

Row | Variant | Tm [°C] | heat capacity change of unfolding [kcal/mol/K] | unfolding enthalpy (calorimetric) [kcal/mol] | unfolding enthalpy (van 't Hoff) [kcal/mol]
19 | I124A | 69.7 | 1.58 | 112 | 119

Same assay, conditions: Homo sapiens; pH 2.49; Thermal; DSC; glycine 0.05 M; reversible: yes; structure 1LZ1; whole UniProt chain shown

Row | Variant | Tm [°C] | heat capacity change of unfolding [kcal/mol/K] | unfolding enthalpy (calorimetric) [kcal/mol] | unfolding enthalpy (van 't Hoff) [kcal/mol]
20 | I77A | 55.9 | 0.84 | 101 | 108
21 | I77G | 48.1 | 0.79 | 84.4 | 89.7

Same assay, conditions: Homo sapiens; pH 2.66; Thermal; DSC; glycine 0.05 M; reversible: yes; structure 1LZ1; whole UniProt chain shown

Row | Variant | Tm [°C] | heat capacity change of unfolding [kcal/mol/K] | unfolding enthalpy (calorimetric) [kcal/mol] | unfolding enthalpy (van 't Hoff) [kcal/mol]
22 | I77A | 59.1 | 1.2 | 106 | 114
23 | I107A | 55.4 | 1.39 | 93.1 | 98.1

Same assay, conditions: Homo sapiens; pH 2.98; Thermal; DSC; glycine 0.05 M; reversible: yes; structure 1LZ1; whole UniProt chain shown

Row | Variant | Tm [°C] | heat capacity change of unfolding [kcal/mol/K] | unfolding enthalpy (calorimetric) [kcal/mol] | unfolding enthalpy (van 't Hoff) [kcal/mol]
24 | I77A | 64.5 | 1.63 | 115 | 120

Same assay, conditions: Homo sapiens; pH 2.82; Thermal; DSC; glycine 0.05 M; reversible: yes; structure 1LZ1; whole UniProt chain shown

Row | Variant | Tm [°C] | heat capacity change of unfolding [kcal/mol/K] | unfolding enthalpy (calorimetric) [kcal/mol] | unfolding enthalpy (van 't Hoff) [kcal/mol]
25 | I77G | 54.6 | 0.65 | 94.7 | 97.6

Same assay, conditions: Homo sapiens; pH 3.02; Thermal; DSC; glycine 0.05 M; reversible: yes; structure 1LZ1; whole UniProt chain shown

Row | Variant | Tm [°C] | heat capacity change of unfolding [kcal/mol/K] | unfolding enthalpy (calorimetric) [kcal/mol] | unfolding enthalpy (van 't Hoff) [kcal/mol]
26 | I77G | 59.2 | 0.86 | 98.6 | 100

Same assay, conditions: Homo sapiens; pH 3.16; Thermal; DSC; glycine 0.05 M; reversible: yes; structure 1LZ1; whole UniProt chain shown

Row | Variant | Tm [°C] | heat capacity change of unfolding [kcal/mol/K] | unfolding enthalpy (calorimetric) [kcal/mol] | unfolding enthalpy (van 't Hoff) [kcal/mol]
27 | I77G | 60.4 | 0.81 | 100 | 102

Same assay, conditions: Homo sapiens; pH 2.5; Thermal; DSC; glycine 0.05 M; reversible: yes; structure 1LZ1; whole UniProt chain shown

Row | Variant | Tm [°C] | heat capacity change of unfolding [kcal/mol/K] | unfolding enthalpy (calorimetric) [kcal/mol] | unfolding enthalpy (van 't Hoff) [kcal/mol]
28 | I107A | 52.6 | 1.72 | 89.5 | 95.5
29 | I74A | 48.2 | 1.22 | 82.8 | 84

Same assay, conditions: Homo sapiens; pH 2.95; Thermal; DSC; glycine 0.05 M; reversible: yes; structure 1LZ1; whole UniProt chain shown

Row | Variant | Tm [°C] | heat capacity change of unfolding [kcal/mol/K] | unfolding enthalpy (calorimetric) [kcal/mol] | unfolding enthalpy (van 't Hoff) [kcal/mol]
30 | I107A | 61.1 | 1.67 | 103 | 108

Same assay, conditions: Homo sapiens; pH 3.09; Thermal; DSC; glycine 0.05 M; reversible: yes; structure 1LZ1; whole UniProt chain shown

Row | Variant | Tm [°C] | heat capacity change of unfolding [kcal/mol/K] | unfolding enthalpy (calorimetric) [kcal/mol] | unfolding enthalpy (van 't Hoff) [kcal/mol]
31 | I107A | 62.9 | 1.51 | 106 | 110

Same assay, conditions: Homo sapiens; pH 2.67; Thermal; DSC; glycine 0.05 M; reversible: yes; structure 1LZ1; whole UniProt chain shown

Row | Variant | Tm [°C] | heat capacity change of unfolding [kcal/mol/K] | unfolding enthalpy (calorimetric) [kcal/mol] | unfolding enthalpy (van 't Hoff) [kcal/mol]
32 | I41A | 56.2 | 1.51 | 98.1 | 103
33 | I74A | 52.3 | 1.53 | 89 | 91.4

Same assay, conditions: Homo sapiens; pH 2.73; Thermal; DSC; glycine 0.05 M; reversible: yes; structure 1LZ1; whole UniProt chain shown

Row | Variant | Tm [°C]
34 | I74G | 62.7

Same assay, conditions: Homo sapiens; pH 2.81; Thermal; DSC; glycine 0.05 M; reversible: yes; structure 1LZ1; whole UniProt chain shown

Row | Variant | Tm [°C] | heat capacity change of unfolding [kcal/mol/K] | unfolding enthalpy (calorimetric) [kcal/mol] | unfolding enthalpy (van 't Hoff) [kcal/mol]
35 | I74A | 54.2 | 1.46 | 90.7 | 92.1

Same assay, conditions: Homo sapiens; pH 3.08; Thermal; DSC; glycine 0.05 M; reversible: yes; structure 1LZ1; whole UniProt chain shown

Row | Variant | Tm [°C] | heat capacity change of unfolding [kcal/mol/K] | unfolding enthalpy (calorimetric) [kcal/mol] | unfolding enthalpy (van 't Hoff) [kcal/mol]
36 | I74A | 60.2 | 1.44 | 98.8 | 102

Source: FireProtDB (doi:10.1006/jmbi.1997.1365)
